Laboratory results published in patent US7229788B1, “Protease susceptibility II” (The University of Sydney, priority 1998, dated 2007).

T1: bovine trypsin (Bos taurus, UniProt P00760)
T1 construct: purchased Boehringer-Mannheim
T1 sequence (P00760 24-246): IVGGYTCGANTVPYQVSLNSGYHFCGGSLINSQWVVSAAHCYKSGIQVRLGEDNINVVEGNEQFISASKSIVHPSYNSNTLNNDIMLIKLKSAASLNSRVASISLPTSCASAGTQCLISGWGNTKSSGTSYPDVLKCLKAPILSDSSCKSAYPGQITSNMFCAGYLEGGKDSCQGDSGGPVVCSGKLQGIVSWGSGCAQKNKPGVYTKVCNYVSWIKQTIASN

T2: Gelatinase A (72 kDa gelatinase) (Homo sapiens, UniProt P08253)
T2 construct: purchased Boehringer Mannheim Roche Diagnostics
T2 sequence (P08253 110-660): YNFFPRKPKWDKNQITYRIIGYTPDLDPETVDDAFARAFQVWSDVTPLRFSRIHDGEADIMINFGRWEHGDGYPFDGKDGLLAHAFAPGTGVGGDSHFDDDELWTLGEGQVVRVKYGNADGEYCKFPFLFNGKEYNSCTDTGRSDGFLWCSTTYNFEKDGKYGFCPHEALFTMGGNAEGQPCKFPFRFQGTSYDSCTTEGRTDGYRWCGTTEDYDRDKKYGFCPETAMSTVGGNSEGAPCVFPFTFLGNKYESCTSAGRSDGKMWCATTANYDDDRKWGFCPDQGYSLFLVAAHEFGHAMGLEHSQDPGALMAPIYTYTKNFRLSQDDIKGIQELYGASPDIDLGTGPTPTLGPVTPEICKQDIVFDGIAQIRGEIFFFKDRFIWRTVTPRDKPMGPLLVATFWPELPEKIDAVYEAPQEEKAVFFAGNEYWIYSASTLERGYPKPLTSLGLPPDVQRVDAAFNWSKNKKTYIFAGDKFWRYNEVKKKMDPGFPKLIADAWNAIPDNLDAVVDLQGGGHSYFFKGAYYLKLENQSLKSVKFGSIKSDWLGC

T3: human leukocyte elastase (HLE) (Homo sapiens, UniProt P08246)
T3 construct: purchased Sigma
T3 sequence (P08246 30-267): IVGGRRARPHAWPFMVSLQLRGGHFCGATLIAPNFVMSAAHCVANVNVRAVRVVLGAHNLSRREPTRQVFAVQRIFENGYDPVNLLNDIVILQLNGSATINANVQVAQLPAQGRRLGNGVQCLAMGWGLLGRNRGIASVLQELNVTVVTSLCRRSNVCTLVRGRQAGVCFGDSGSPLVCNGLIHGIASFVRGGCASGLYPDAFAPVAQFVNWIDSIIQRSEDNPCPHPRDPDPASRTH

B1: SHELδ26A: derived from SHEL by removing sequence corresponding to exon 26A; SEQ ID NO:5; reduced tropoelastin derivative (protein, listed as Homo sapiens)
chain: GGVPGAIPGGVPGGVFYPGAGLGALGGGALGPGGKPLKPVPGGLAGAGLGAGLGAFPAVTFPGALVPGGVADAAAAYKAAKAGAGLGGVPGVGGLGVSAGAVVPQPGAGVKPGKVPGVGLPGVYPGGVLPGARFPGVGVLPGVPTGAGVKPKAPGVGGAFAGIPGVGPFGGPQPGVPLGYPIKAPKLPGGYGLPYTTGKLPYGYGPGGVAGAAGKAGYPTGTGVGPQAAAAAAAKAAAKFGAGAAGVLPGVGGAGVPGVPGAIPGIGGIAGVGTPAAAAAAAAAAKAAKYGAAAGLVPGGPGFGPGVVGVPGAGVPGVGVPGAGIPVVPGAGIPGAAVPGVVSPEAAAKAAAKAAKYGARPGVGVGGIPTYGVGAGGFPGFGVGVGGIPGVAGVPSVGGVPGVGGVPGVGISPEAQAAAAAKAAKYGVGTPAAAAAKAAAKAAQFGLVPGVGVAPGVGVAPGVGVAPGVGLAPGVGVAPGVGVAPGVGVAPGIGPGGVAAAAKSAAKVAAKAQLRAAAGLGAGIPGLGVGVGVPGLGVGAGVPGLGVGAGVPGFGAVPGALAAAKAAKYGAAVPGVLGGLGALGGVGIPGGVVGAGPAAAAAAAKAAAKAAQFGLVGAAGLGGLGVGGLGVPGVGGLGGIPPAAAAKAAKYGAAGLGGVLGGAGQFPLGGVAARPGFGLSPIFPGGACLGKACGRKRK
B2: GST-SHEL: fusion of glutathione S-transferase (GST) with SHEL (protein)
chain: GGVPGAIPGGVPGGVFYPGAGLGALGGGALGPGGKPLKPVPGGLAGAGLGAGLGAFPAVTFPGALVPGGVADAAAAYKAAKAGAGLGGVPGVGGLGVSAGAVVPQPGAGVKPGKVPGVGLPGVYPGGVLPGARFPGVGVLPGVPTGAGVKPKAPGVGGAFAGIPGVGPFGGPQPGVPLGYPIKAPKLPGGYGLPYTTGKLPYGYGPGGVAGAAGKAGYPTGTGVGPQAAAAAAAKAAAKFGAGAAGVLPGVGGAGVPGVPGAIPGIGGIAGVGTPAAAAAAAAAAKAAKYGAAAGLVPGGPGFGPGVVGVPGAGVPGVGVPGAGIPVVPGAGIPGAAVPGVVSPEAAAKAAAKAAKYGARPGVGVGGIPTYGVGAGGFPGFGVGVGGIPGVAGVPSVGGVPGVGGVPGVGISPEAQAAAAAKAAKYGVGTPAAAAAKAAAKAAQFGLVPGVGVAPGVGVAPGVGVAPGVGLAPGVGVAPGVGVAPGVGVAPGIGPGGVAAAAKSAAKVAAKAQLRAAAGLGAGIPGLGVGVGVPGLGVGAGVPGLGVGAGVPGFGAGADEGVRRSLSPELREGDPSSSQHLPSTPSSPRVPGALAAAKAAKYGAAVPGVLGGLGALGGVGIPGGVVGAGPAAAAAAAKAAAKAAQFGLVGAAGLGGLGVGGLGVPGVGGLGGIPPAAAAKAAKYGAAGLGGVLGGAGQFPLGGVAARPGFGLSPIFPGGACLGKACGRKRK
modifications: left off: a dimerising Fc or GST
B3: SHEL: recombinant human tropoelastin splice form, amino acid sequence SEQ ID NO:4, obtained by the method of WO94/14958 (protein, listed as Homo sapiens)
chain: B2 chain

Experiments:
Type in all cases: biochemical
human plasma kallikrein = target: T4, human plasma kallikrein (Homo sapiens, UniProt P03952); experiment: Kallikrein digestion of SHEL, SDS-PAGE; conditions: for degradation by human plasma kallikrein: 50 mM sodium phosphate pH 7.8, 37° C.; for protection from degradation by kallikrein in the coacervated state: coacervated at 37° C., 150 mM NaCl
T4 construct: purchased Sigma
T4 sequence (P03952 20-638): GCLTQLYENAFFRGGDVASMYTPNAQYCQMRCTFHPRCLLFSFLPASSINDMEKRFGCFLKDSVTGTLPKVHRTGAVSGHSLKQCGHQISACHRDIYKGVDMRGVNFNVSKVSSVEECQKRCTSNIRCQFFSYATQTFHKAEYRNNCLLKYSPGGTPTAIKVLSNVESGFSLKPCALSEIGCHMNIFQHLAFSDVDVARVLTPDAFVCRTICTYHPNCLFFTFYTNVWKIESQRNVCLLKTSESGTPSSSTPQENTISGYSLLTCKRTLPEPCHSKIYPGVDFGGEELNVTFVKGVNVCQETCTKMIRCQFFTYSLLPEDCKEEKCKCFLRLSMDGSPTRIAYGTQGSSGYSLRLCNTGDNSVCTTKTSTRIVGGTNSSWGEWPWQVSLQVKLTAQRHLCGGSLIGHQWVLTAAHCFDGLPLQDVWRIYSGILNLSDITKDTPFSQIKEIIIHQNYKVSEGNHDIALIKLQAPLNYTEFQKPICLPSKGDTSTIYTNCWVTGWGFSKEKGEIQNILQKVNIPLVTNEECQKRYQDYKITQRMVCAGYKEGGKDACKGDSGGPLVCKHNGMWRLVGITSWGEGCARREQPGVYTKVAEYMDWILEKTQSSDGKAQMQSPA
Experimental: (§1) A range of enzyme concentrations was originally used to determine the optimal amount for subsequent experiments. Thrombin (0.01–1U), human plasma kallikrein (3×10^−4 to 3×10^−3U), human plasmin (7×10^−5 to 4×10^−7U), bovine trypsin (5×10^−4 to 4×10^−3U), and human leukocyte elastase (1.6×10^−4 to 3.2×10^−3U) were added to 10 μg SHEL or SHELδ26A in 50 mM sodium phosphate buffer pH 7.8 in a total volume of 20 μl. All reactions were performed at 37° C. for one hour. Gelatinase A and B were activated using 0.8 mM APMA at 37° C. for 30 minutes (gelatinase A) or 37° C. for 45 minutes (gelatinase B). Gelatinase A (4×10^−3−4×10^−2) and gelatinase B (2×10^−5−1×10^−4) was added to […] SHEL or SHELd26A in a total volume of […]. Gelatinase B reactions were performed in the presence of 0.75 mM APMA. The degradation profile was analysed by 8, 10 or 12% SDS-PAGE.
(§2) Both SHEL and SHELδ26A were used. Each reaction was analysed by 10% SDS-PAGE.
(§3) Extent of proteolysis was monitored by SDS-PAGE.

protease = experiment: Protease resistance of SHELδ26A compared with SHEL
Experimental: as §1

human plasmin = target: T5, human plasmin (Homo sapiens, UniProt P00747); experiment: Plasmin digestion of SHEL, SDS-PAGE; conditions: for protection from degradation by plasmin in the coacervated state: coacervated at 37° C., 150 mM NaCl
T5 construct: purchased Sigma
T5 sequence (P00747 97-810): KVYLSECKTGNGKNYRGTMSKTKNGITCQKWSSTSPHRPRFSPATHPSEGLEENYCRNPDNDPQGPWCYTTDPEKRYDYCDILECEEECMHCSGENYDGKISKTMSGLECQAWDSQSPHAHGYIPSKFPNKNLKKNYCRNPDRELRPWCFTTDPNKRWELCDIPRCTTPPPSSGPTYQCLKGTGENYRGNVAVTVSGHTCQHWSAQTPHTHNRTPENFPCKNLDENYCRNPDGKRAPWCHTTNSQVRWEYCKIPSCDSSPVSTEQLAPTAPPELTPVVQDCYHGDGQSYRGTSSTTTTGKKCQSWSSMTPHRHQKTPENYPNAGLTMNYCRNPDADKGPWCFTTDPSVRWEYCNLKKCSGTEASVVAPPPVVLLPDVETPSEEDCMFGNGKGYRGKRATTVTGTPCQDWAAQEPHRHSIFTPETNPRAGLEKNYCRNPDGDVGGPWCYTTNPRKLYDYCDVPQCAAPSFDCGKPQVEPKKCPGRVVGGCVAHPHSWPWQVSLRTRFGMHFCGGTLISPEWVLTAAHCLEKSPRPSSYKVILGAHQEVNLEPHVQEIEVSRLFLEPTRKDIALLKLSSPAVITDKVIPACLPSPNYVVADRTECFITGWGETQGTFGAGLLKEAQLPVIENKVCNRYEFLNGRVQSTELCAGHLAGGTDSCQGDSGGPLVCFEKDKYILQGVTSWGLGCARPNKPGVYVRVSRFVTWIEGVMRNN
Experimental: as §1, §2, §3

human thrombin = target: T6, human thrombin (Homo sapiens, UniProt P00734); experiment: Thrombin digestion of SHEL, SDS-PAGE; conditions: for protection from degradation by thrombin in the coacervated state: coacervated at 37° C., 150 mM NaCl
T6 construct: purchased Sigma
Experimental: as §1, §2, §3
Cleavage of GST-SHEL bound to glutathione agarose was performed by washing and resuspending beads in 1× thrombin cleavage buffer (50 mM Tris-HCl pH8.0, 150 mM NaCl, 2.5 mM CaCl2) and adding human thrombin (Sigma) from 0.1 to 1% (w/v) thrombin:fusion protein at 25° C. for one hour (Smith and Johnston 1988). Soluble bacterial lysates used as substrate were incubated similarly with 1× thrombin cleavage buffer, added from a 10× stock. GST (26 kDa) was evident on beads by SDS-PAGE but SHEL could not be identified in the supernatant in numerous experiments. To determine whether thrombin was degrading SHEL, the entire cell lysate was subject to cleavage with increasing concentrations of thrombin. […] GST was clearly present. However, with 0.01U thrombin a band at approximately 64 kDa could be discerned which may represent SHEL although this was not nearly as intense as the GST band.

bovine trypsin = target: T1, bovine trypsin; experiment: Trypsin digestion of SHEL, SDS-PAGE
Experimental: as §1, §2, §3

[1] = target: T7, gelatinase B (92 kDa gelatinase) (Homo sapiens, UniProt P14780); experiment: Gelatinase B digestion of SHEL; conditions: SDS-PAGE and zymogram analysis
T7 construct: purchased Boehringer Mannheim Roche Diagnostics
T7 sequence (P14780 107-707 limits assumed, species assumed): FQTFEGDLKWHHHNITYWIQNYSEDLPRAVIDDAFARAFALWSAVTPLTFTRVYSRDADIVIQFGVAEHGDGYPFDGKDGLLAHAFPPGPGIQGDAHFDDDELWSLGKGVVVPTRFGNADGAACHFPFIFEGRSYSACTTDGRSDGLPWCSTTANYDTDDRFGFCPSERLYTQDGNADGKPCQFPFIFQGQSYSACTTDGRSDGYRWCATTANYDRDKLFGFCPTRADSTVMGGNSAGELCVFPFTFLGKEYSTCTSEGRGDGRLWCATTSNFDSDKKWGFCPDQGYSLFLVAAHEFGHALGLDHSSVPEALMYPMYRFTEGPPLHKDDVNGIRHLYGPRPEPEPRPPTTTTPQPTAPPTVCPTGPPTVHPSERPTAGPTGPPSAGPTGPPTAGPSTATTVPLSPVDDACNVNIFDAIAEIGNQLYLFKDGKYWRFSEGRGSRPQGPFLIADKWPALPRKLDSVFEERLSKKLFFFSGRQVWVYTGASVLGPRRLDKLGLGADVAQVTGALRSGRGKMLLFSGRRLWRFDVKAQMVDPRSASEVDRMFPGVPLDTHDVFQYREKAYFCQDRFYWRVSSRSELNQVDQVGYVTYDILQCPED
Experimental: as §1

[2] = target: T2, Gelatinase A (72 kDa gelatinase); experiment: Gelatinase A digestion of SHEL; conditions: SDS-PAGE and zymogram analysis
Experimental: as §1

[3] = target: T3, human leukocyte elastase (HLE); experiment: HLE digestion of SHEL, SDS-PAGE
Experimental: as §1, §2, §3

[4] = 50 mM sodium phosphate pH 7.8, 37° C.
[5] = coacervated at 37° C., 150 mM NaCl

Row | Molecule | degradation by human plasma kallikrein (human plasma kallikrein) | protection from degradation by kallikrein in the coacervated state (human plasma kallikrein) | protease resistance relative to SHEL (protease) | protection from degradation by plasmin in the coacervated state (human plasmin) | protection from degradation by thrombin in the coacervated state (human thrombin) | cleavage of fusion protein by thrombin (human thrombin; thrombin cleavage buffer, 25° C., one hour) | degradation by bovine trypsin (bovine trypsin; [4]) | protection from degradation by trypsin in the coacervated state (bovine trypsin; [5]) | degradation by human plasmin (human plasmin; [4]) | digestion by gelatinase B [1] | digestion by gelatinase A [2] | degradation by human leukocyte elastase [3, 4] | protection from degradation by HLE in the coacervated state [3, 5] | degradation by thrombin (human thrombin; 50 mM sodium phosphate pH 7.8, 37° C., one hour)
1 | B1 | highly specific and limited proteolysis | significant protection from proteolysis | higher protease resistance than SHEL | No protection was seen | significant protection from proteolysis |  |  |  |  |  |  |  |  | 
2 | B2 |  |  |  |  |  | extensively and in a reproducible manner |  |  |  |  |  |  |  | 
3 | B3 | specific and reproducible degradation | significantly protected from degradation |  | not by plasmin | significantly protected from degradation |  | complete degradation with prolonged treatment | some inhibition | at high concentration extensive degradation occurred | digested | digested | extensive degradation if left for extended period | some inhibition | easily degraded
